For the assay, the target named is glucagon receptor (rat ventricular myocardium) (rat (endogenous in Sprague-Dawley rat right ventricle)) (UniProt P30082).

The results in this text go back to paper PMC10230788.

Sequence of UniProt P30082 (P30082 27-485): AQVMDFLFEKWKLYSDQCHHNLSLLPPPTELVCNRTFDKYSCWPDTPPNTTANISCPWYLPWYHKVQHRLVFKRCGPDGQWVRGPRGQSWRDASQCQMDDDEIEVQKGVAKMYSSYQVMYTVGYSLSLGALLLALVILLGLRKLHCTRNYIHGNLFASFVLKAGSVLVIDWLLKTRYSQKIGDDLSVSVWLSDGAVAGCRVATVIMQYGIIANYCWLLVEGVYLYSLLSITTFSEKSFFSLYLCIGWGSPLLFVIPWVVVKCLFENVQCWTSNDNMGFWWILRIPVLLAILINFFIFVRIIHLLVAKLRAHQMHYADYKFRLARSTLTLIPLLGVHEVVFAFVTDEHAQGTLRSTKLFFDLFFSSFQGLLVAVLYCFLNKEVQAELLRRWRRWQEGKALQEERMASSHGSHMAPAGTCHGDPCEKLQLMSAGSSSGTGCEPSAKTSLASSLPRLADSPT
Sequence of glucagon (P01275 53-81): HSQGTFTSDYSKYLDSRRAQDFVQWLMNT

With “glucagon (from UniProt P01275 53-81) (ligand)”, the Emax of the inotropic response (percent increase in contractility over baseline) of rat right ventricle strips to glucagon (1–1000 nM), in the absence of IBMX amounted to 40%; the Emax of the inotropic response (percent increase in contractility over baseline) of rat right ventricle strips to glucagon (1–1000 nM), in the presence of 30 µM IBMX came out at 75%; the –log EC50 of the positive inotropic response (contractility) of electrically driven rat right ventricle strips to glucagon (1–1000 nM), glucagon alone is 7.1 –log EC50.
